Read-outs that look alike come from different tables or passages of the source.
Tests used:
gastric cancer NCI-N87 = test: In vivo anti-tumor effect, gastric cancer NCI-N87 tumor model; set-up: species or system mouse; conditions: NCI-N87 subcutaneous model, FIG. 10, FIG. 11
Procedure: (§1) Tumor cells (ovarian cancer SKOV-3, gastric cancer NCI-N87, and breast cancer JIMT-1) were cultured in a medium and maintained in a 37° C. saturated humidity incubator containing 5% CO2, respectively.
(§2) Tumor cells in a logarithmic growth phase were collected and re-suspended in a basic medium, and the concentration of cells was adjusted to 4×10^7/mL. Under sterile conditions, 0.1 mL of cell suspension was inoculated subcutaneously into the right armpit of a mouse at a concentration of 4×10^6 Cells/0.1 mL/mouse.
(§3) When the tumor volume reached around 200 mm^3, animals were randomly grouped according to the tumor volume, where the difference in tumor volume between the groups was less than 10% of the mean. The grouping day was recorded as Day 0, and administration started according to the body weight of the animals. In the administration period, if the body weight of individual animals decreased by more than 15% compared to that on Day 0 (BWL≥15%), the administration was stopped until the body weight of the animals recovered (BWL<15%), and then the administration recovered.
(§4) During the experiment, the body weight of the animals and the tumor volume were measured 2 times a week, and clinical symptoms of the animals were observed and recorded every day.

breast cancer JIMT-1 = test: In vivo anti-tumor effect, breast cancer JIMT-1 tumor model; set-up: species or system mouse; conditions: JIMT-1 subcutaneous model, FIG. 10
Procedure: as §1, §2, §3, §4

[1] = Polymer (high molecular component) content of antibody-drug conjugates by SE-HPLC; assay type: physicochemical; conditions: ADC with Her2 antibody
In short: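 SE-HPLC on 7.8×300 mm SEC column with 50 mM phosphate, 300 mM NaCl (pH 6.8) mobile phase at 0.5 mL/min; high-molecular-weight content determined by area normalization.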

[2] = assay type: physicochemical; conditions: ADC with Her2 antibody, RP-HPLC-MS
In short: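 ADC at 1 mg/ml reduced with 50 mmol/L DTT in Tris pH 8.0 for 30 min at 37 °C, then light and heavy chains separated by RP-HPLC on a PLRP-S column at 70 °C. Deconvoluted masses assigned drug load per peak; weighted average DAR calculated from UV peak area percentages.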

[3] = Naked antibody content of antibody-drug conjugates by hydrophobic interaction chromatography (HIC); assay type: physicochemical; conditions: ADC with Her2 antibody
[4] = Stability (placement) test of ADCs at 40° C. in dark for 14 days, DAR and polymer content; assay type: physicochemical
In short: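 ADCs stored at 40° C in dark, sampled on days 0, 7 and 14. Polymer content by SE-HPLC (50 mM phosphate, 300 mM NaCl, pH 6.8), area normalization. DAR by RP-HPLC-MS after reduction (1 mg/ml in 50 mmol/L Tris pH 8.0, 50 mmol/L DTT, 37° C, 30 min): deconvoluted chain masses assign drug load, weighted average from UV peak areas.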

SMILES | in vivo anti-tumor effect on gastric cancer (gastric cancer NCI-N87) | in vivo anti-tumor effect on breast cancer (breast cancer JIMT-1) | Polymer content (%) [1] [%] | DAR [2] | Naked antibody content (%) [3] [%] | DAR ([4]; Day 0, 40° C. in dark) | Polymer content (%) ([4]; Day 0, 40° C. in dark) | DAR ([4]; Day 7, 40° C. in dark) | Polymer content (%) ([4]; Day 7, 40° C. in dark) | DAR ([4]; Day 14, 40° C. in dark) | Polymer content (%) ([4]; Day 14, 40° C. in dark)
C=C1C[C@@H]2CC[C@@]34C[C@H]5OC6C(O[C@H]7CC[C@H](CC(=O)C[C@@H]8[C@@H](OC)[C@@H](C[C@H](O)CNC(=O)CNC(=O)[C@H](Cc9ccccc9)NC(=O)CNC(=O)CNC(=O)CCCCCN9C(=O)C=CC9=O)O[C@H]8C[C@H]8O[C@@H](CC[C@@H]1O2)C[C@@H](C)C8=C)O[C@@H]7[C@@H]6O3)[C@H]5O4 [Comparative Example 4, reference compound] | poor anti-tumor effects | poor anti-tumor effects | 10.73 | 3.01 | 8.01 |  |  |  |  |  | 
C=C1C[C@@H]2CC[C@@]34C[C@H]5OC6C(O[C@H]7CC[C@H](CC(=O)C[C@@H]8[C@@H](OC)[C@@H](C[C@H](O)CNC(=O)CNC(=O)[C@H](Cc9ccccc9)NC(=O)CNC(=O)CN9CCOCCOCCN(C(=O)CCCCCN%10C(=O)C=CC%10=O)CCOCCOCC9)O[C@H]8C[C@H]8O[C@@H](CC[C@@H]1O2)C[C@@H](C)C8=C)O[C@@H]7[C@@H]6O3)[C@H]5O4 [Example 40] | significantly better |  | 1.29 | 3.78 | 4.27 | 3.78 | 1.29 | 3.75 | 1.31 | 3.74 | 1.41
